In US7399747B1, “Peptides carrying substances across the blood brain barrier” (SYNT:EM, priority 1998, dated 2008):
Entries after “also recorded” stand apart in the source; their conditions may differ. *1 amine or outer side, *2 acyl side, *3 side chain or, on linkers, in order; H or OH if unused. Where a SMILES comes first, the peptide text is derived from it. Where no end group is shown, it is not given here. The star is where a group is joined. Doxorubicin(3'-N) = COc1cccc2c1C(=O)c1c(O)c3c(c(O)c1C2=O)C[C@@](O)(C(=O)CO)C[C@@H]3O[C@H]1C[C@H](N*)[C@H](O)[C@H](C)O1; Suc = O=C(CCC(=O)[*:2])[*:1]

Legend:
[1] = Hot Plate model (latency time); type: in vivo, mouse; conditions: for Effect on latency time / analgesic activity: i.v. injection, latency measured 0 to 90 minutes; for Latency time: 2 mg/Kg i.v. (dalargine equivalent), 5 minutes after injection
Procedure: For the purposes of this study, the biological activity of dalargine alone was compared with the biological activity of dalargine vectorised with SynB1. Consequently, the “Hot Plate” model in the mouse was used. In this model, the mouse is placed on a hot plate and the time that the mouse takes to react to heat is measured as the “latency time”.
2 mg/Kg of each product was injected intravenously into the mouse (the dose corresponding to the quantity of dalargine). After times varying from 0 to 90 minutes, the latency time was measured. […] The latency time is constant. […] For example 5 minutes after injection, the latency time of vectorised dalargine is 22.75 seconds, whereas it is only 7.6 seconds for dalargine alone.

[2] = Capillary depletion after cerebral perfusion and rinsing (distribution volume Vd); type: in vivo, rat
Procedure: This method is used to measure the distribution of products between the cerebral parenchyma and endothelial cells, Triguero et al., 1990, J. Neurochem. 54, 1882-1888). After 60 seconds of perfusion, that may or may not be followed by 30 seconds rinsing, the right hemisphere is removed, its meninges and choroid plexus are removed, and it is then homogenized in 3.5 ml of Hepes buffer (10 mM of Hepes, 141 mM of NaCl, 4 mM of KCl, 1 mM of NaH2PO4, 2.8 mM of CaCl2, 1 mM of MgSO4 and 10 mM of D-glucose, pH=7.4). After grinding in the potter, 4 ml of solution containing 4% of Dextran (PM=76900) are added and the mix is stirred vigorously in order to obtain a […]. All these operations are carried out at 4° C. in less than 5 minutes. After taking a sample of the homogenate thus obtained, the homogenate is then put into the centrifuge for 15 minutes at 5400 g in order to separate the endothelial cells present in the base of the cerebral parenchyma that remained in the floating material. The results are expressed as distribution volumes in the floating material and the base.
This method measures the distribution of products between the cerebral parenchyma and endothelial cells. Capillary depletion is carried out after 60 seconds perfusion followed by 30 seconds rinsing. The distribution volumes (Vd) in endothelial cells and the cerebral parenchyma are expressed in microliters/g.

[3] = In situ cerebral perfusion, penetration into the brain (influx constant Kin); type: in vivo, rat
Procedure: The rats are perfused with the buffer containing free doxorubicin or compounds No. 1 or 2. The doxorubicin is radio-marked with carbon 14 in each product (specific activity=9.4 microCi/mg, Amersham, France). The products are perfused at a concentration of 0.33 microCi/ml or 0.035 mg/rat.
The heart is stopped by cutting the ventricles immediately before perfusion starts, in order to prevent reflux of the perfusate during the perfusion.
The brain is removed quickly after decapitation. The brain is dissected on a mirror into 8 regions, namely Hypothalamus (HY), frontal Cortex (CF), Mesencephale (MS), Occipital Cortex (CO), Parietal Cortex (CP), Thalamus (TH), Hippocampus (HP), Striatum (ST), which are placed in previously calibrated glass flasks and then weighed. These structures and 50 microliters of perfusate are digested for two hours in 1 ml of soluene at 60° C. A scintillating cocktail (10 ml, Pico-fluor, Packard) is added to each sample and the quantity of tracers contained in them is measured by double counting in liquid scintillation (Packard, Tricarb, 1900TR).
This study consisted of comparing penetration in the HEB of doxorubicin alone with doxorubicin using compounds numbers 1 and 2 as vectors. After 60 seconds perfusion in the buffer, the penetration of products was estimated using the influx constant or Kin in microl/sec/g. […]

HEB = assay: Tolerance to products: integrity of HEB by [3H]-sucrose distribution volume during in situ cerebral perfusion; conditions: co-perfused with [3H]-sucrose
From the text: This is a fast and sensitive method of evaluating the penetration of various compounds into the central nervous system (Takasato et al., 1984, Am. J. Physiol. 247, 484-493; Allen et al., 1997, Pharm Res. 14, 337-341). Two month old male Sprague-dawley rats (250-350 g. Iffa-Credo; l'Arbresle, France) are anaesthetised. After exposure of the common carotid, the right external carotid artery is bound at the junction with the internal carotid and the common carotid is bound between the heart and the site at which the catheter is installed (polyethylene catheter, ID=0.76). This catheter, previously filled with a solution of heparin (100 units/ml) is inserted into the common carotid. Rats are perfused with the perfusion buffer (128 mM NaCl, 24 mM NaHCO3, 4.2 mM KCl, 2.4 mM NaH2PO4, 1.5 mM CaCl2, 0.9 mM MgSO4, and 9 mM D-glucose). This buffer is filtered and then is bubbled using a mix containing 95% O2/5% CO2 in order to keep the pH close to 7.4 and to supply oxygen to the brain during the perfusion.
It is estimated that this volume must not exceed […]. For larger volumes, it is concluded that the permeability of HEB is abnormal.
Doxorubicin, compounds numbers 1 and 2 were injected in the presence of sucrose and the integrity of the HEB is measured.

[4] = Intravenous injection in NMRI-nude mice, radioactivity in the brain; conditions: for Product quantity in brain: i.v. 2.5 mg DXR base/kg
Procedure: NMRI-nude mice are injected intravenously with compound No. 1 or doxorubicin alone at a dose of 2.5 mg/kg (equivalent in doxorubicin). The doxorubicin is marked with carbon 14 (about 0.5 microCi is injected per mouse). The mice are sacrificed after 1, 5, 15, 30, 60, 180, 480 and 1360 minutes. The organs are then removed and counted. The quantity of radioactivity in each organ is then expressed as the quantity of product per gram of organ. In this study, we used five mice for each period of time.
After intravenous injection of compound No. 1, nude mice were sacrificed at different times and the total radioactivity in the brain was counted and expressed as a quantity of product per gram of brain.

[5] = for Reduction of the influx constant after rinsing: 60 s perfusion then 30 s rinsing with buffer without tracer
Procedure: For rats on which the rinsing step is carried out, the catheter is inserted into the common carotid as described above, and is then connected to a 4-way valve (opposite passages) (Hamilton, USA) connected to two syringes; one containing the radio-marked tracer (syringe A) and the other the buffer alone (syringe B). Once the catheter is in position and the connections have been made correctly, the thoracic cage of the rat is opened and the heart is cut. The contents of syringe A are then immediately perfused at a rate of 10 ml/min. After 60 seconds, the contents of syringe B are injected in turn at the same rate. The rat is decapitated after 30 seconds of rinsing.
Rinsing of cerebral capillaries by perfusion of the buffer without tracer for 30 seconds eliminates the fraction of the product being studied adhering to the luminal membrane of endothelial cells, if any.

[6] = Intravenous injection in CD1 mice, whole-body autoradiography, brain; conditions: i.v. 2 mg DXR base/kg
Procedure: In the case of compound No. 2, the CD1 mouse is injected intravenously with compound No. 2 or with free doxorubicin at a dose of 2 mg/kg (equivalent in doxorubicin). Doxorubicin is marked with carbon 14 (about 3 microCi is injected per mouse). The mouse is sacrificed after 15 minutes, 2 hours and 8 hours, and the product quantity in each organ is analysed using the “Whole-body autoradiography” technique. The quantity of radioactivity in each organ is then expressed as a quantity of product per gram of organ. We used one mouse per group in this experiment.
The total radioactivity in the brain is analysed using the “Whole body autoradiography” method and is expressed as a product quantity per gram of brain.

[7] = 60 seconds perfusion followed by 30 seconds rinsing

RGGRLSYSRRRFSTSTGR (PEPTIDE (1)..(18) Syn B1) [SynB1]
Effect on latency time / analgesic activity [1]: no analgesic activity

CC1(C)S[C@@H]2[C@H](NC(=O)Cc3ccccc3)C(=O)N2[C@H]1C(=O)O [benzylpenicillin, Benzylpenicillin, reference compound]
Vd in the cerebral parenchyma ([2]; 30 seconds perfusion followed by 30 seconds rinsing): 3.94 µL/g

Y-(D)A-GFLR [dalargine, reference compound]
Latency time [1]: 7.6 s | Effect on latency time / analgesic activity [1]: no effect was observed

Y-(D)A-GFLR-S-S-RGGRLSYSRRRFSTSTGR [dal-SynB1]
Transfer into the brain (Kin) compared with dalargine alone ([3]; 60 seconds perfusion in the buffer (FIG. 7)): considerably increases its transfer into the brain | Latency time [1]: 22.75 s | Effect on latency time / analgesic activity [1]: an increase in the latency time is observed

Doxo-CO—(CH2)2—CO-RGGRLSYSRRRFSTSTGR ({doxorubicin-Suc}-RGGRLSYSRRRFSTSTGR) [Compound No. 1]
State of the HEB (HEB; perfused dose 0.05 mg): Integral | State of the HEB (HEB; perfused dose 0.8 mg): does not open the HEB abnormally; also recorded: Integral | Vd in the cerebral parenchyma [2, 7]: 28.5 µL/g | Fraction of compound found in the cerebral parenchyma ([2]; 1 minute perfusion followed by 30 seconds rinsing): About 60% | Ratio of compound No. 1/doxorubicin (brain quantity) ([4]; 1 min after i.v. injection): 3.4 | Ratio of compound No. 1/doxorubicin (brain quantity) ([4]; 5 min after i.v. injection): 3.6 | Ratio of compound No. 1/doxorubicin (brain quantity) ([4]; 15 min after i.v. injection): 10.5 | Ratio of compound No. 1/doxorubicin (brain quantity) ([4]; 30 min after i.v. injection): 5 | Ratio of compound No. 1/doxorubicin (brain quantity) ([4]; 60 min after i.v. injection): 3 | Ratio of compound No. 1/doxorubicin (brain quantity) ([4]; 180 min after i.v. injection): 1 | Product quantity in brain ([4]; 1 min): 0.48 microg/g of brain | Product quantity in brain ([4]; 5 min): 0.18 microg/g of brain | Product quantity in brain ([4]; 15 min): 0.42 microg/g of brain | Product quantity in brain ([4]; 30 min): 0.25 microg/g of brain | Product quantity in brain ([4]; 60 min): 0.12 microg/g of brain | Product quantity in brain ([4]; 180 min): 0.03 microg/g of brain | Product quantity in brain ([4]; 480 min): 0.02 microg/g of brain | Product quantity in brain ([4]; 1360 min): 0.01 microg/g of brain | Increase of penetration after rinsing compared with free doxorubicin (factor) ([5]; 60 s perfusion then 30 s rinsing): 4 | Reduction of the influx constant after rinsing [5]: 45%

COc1cccc2c1C(=O)c1c(O)c3c(c(O)c1C2=O)C[C@@](O)(C(=O)CO)C[C@@H]3O[C@H]1C[C@H](N)[C@H](O)[C@H](C)O1 [doxorubicin, Doxorubicin, reference compound]
State of the HEB (HEB; perfused dose 0.07 mg): Integral | Vd in the cerebral parenchyma [2, 7]: 1.75 µL/g | Product quantity in brain ([4]; 1 min): 0.14 microg/g of brain | Product quantity in brain ([4]; 5 min): 0.05 microg/g of brain | Product quantity in brain ([4]; 15 min): 0.04 microg/g of brain | Product quantity in brain ([4]; 30 min): 0.05 microg/g of brain | Product quantity in brain ([4]; 60 min): 0.04 microg/g of brain | Product quantity in brain ([4]; 180 min): 0.03 microg/g of brain | Product quantity in brain ([4]; 480 min): 0.04 microg/g of brain | Product quantity in brain ([4]; 1360 min): 0.01 microg/g of brain | Product quantity in brain ([6]; 15 min): 1.24 ug/g of brain | Product quantity in brain ([6]; 120 min): 0.98 ug/g of brain | Product quantity in brain ([6]; 480 min): 0.67 ug/g of brain | Reduction of the influx constant after rinsing [5]: about 25%

COc1cccc2c1C(=O)c1c(O)c3c(c(O)c1C2=O)C[C@@](O)(C(=O)CO)C[C@@H]3O[C@H]1C[C@H](NC(=O)CCC(=O)N[C@@H](CCCNC(=N)N)C(=O)N[C@@H](CCCNC(=N)N)C(=O)N[C@@H](CC(C)C)C(=O)N[C@@H](CO)C(=O)N[C@@H](Cc2ccc(O)cc2)C(=O)N[C@@H](CO)C(=O)N[C@@H](CCCNC(=N)N)C(=O)N[C@@H](CCCNC(=N)N)C(=O)N[C@@H](CCCNC(=N)N)C(=O)N[C@@H](Cc2ccccc2)C(=O)O)[C@H](O)[C@H](C)O1 [No. 5, Doxo-CO—(CH2)2—CO-RRLSYSRRRF] ({Doxorubicin(3'-N)-Suc}-RRLSYSRRRF-OH)
Increase of transfer into the brain (Kin) compared with doxorubicin alone ([3]; 60 seconds perfusion in the buffer): five times | Penetration in the cerebral parenchyma compared with free doxorubicin [2, 7]: 50 times | Vd in the cerebral parenchyma [2, 7]: 98.32 µL/g
